# In FireProtDB (doi:10.1021/bi002752b):
# Several values for one entry are separate records, joined by “and”; a condition that tells them apart may be missing. Identical values can stand only once.
# B1: 2-hydroxymuconate tautomerase wild type, Q01468 (protein)
# chain: MPIAQIHILEGRSDEQKETLIREVSEAISRSLDAPLTSVRVIITEMAKGHFGIGGELASKVRR
# Conditions: Pseudomonas putida, 25 °C, GdnHCl, phosphate 50 mM, reversible: yes, whole UniProt chain shown
protein,measurement,setting,value
B1,denaturant midpoint (higher = more stable),"pH 6, CD",1.9 M and 2.1 M and 2.3 M
same,denaturant midpoint (higher = more stable),"pH 6, activity",1.4 M and 1.7 M
same,denaturant midpoint (higher = more stable),"pH 7.4, CD",2.4 M and 2.7 M and 2.9 M
same,denaturant midpoint (higher = more stable),"pH 7.4, activity",2.2 M and 2.5 M and 2.9 M
same,denaturant midpoint (higher = more stable),"pH 8.5, CD",2.5 M and 2.8 M and 3 M
same,denaturant midpoint (higher = more stable),"pH 8.5, activity",2.5 M and 2.7 M and 2.9 M
